For series [1], the target named is T1, Glutathione S-transferase (GST)-tagged human XPB (human, UniProt P19447 1-782). The series is described as follows: cell-based or functional assay.
The series “co-IP” deals with the molecule itself. Put plainly: co-IP.
The target in series [2] is T2, Human TFIIEα, wild type, N-terminal FLAG tag (human, UniProt P29083 1-439).
T2 sequence (looked up): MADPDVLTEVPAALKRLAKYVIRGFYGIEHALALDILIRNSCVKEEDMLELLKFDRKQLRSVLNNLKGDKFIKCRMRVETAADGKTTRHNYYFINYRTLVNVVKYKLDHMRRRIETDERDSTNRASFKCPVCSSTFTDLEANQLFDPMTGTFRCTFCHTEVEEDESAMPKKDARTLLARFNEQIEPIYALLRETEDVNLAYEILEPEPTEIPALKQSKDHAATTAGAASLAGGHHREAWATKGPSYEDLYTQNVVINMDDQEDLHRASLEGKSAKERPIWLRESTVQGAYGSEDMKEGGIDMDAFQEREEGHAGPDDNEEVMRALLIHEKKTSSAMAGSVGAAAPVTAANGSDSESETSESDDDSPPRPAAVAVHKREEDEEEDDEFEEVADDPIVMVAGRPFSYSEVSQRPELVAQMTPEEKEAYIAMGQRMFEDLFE
Put plainly: pull-down.

For series [3], the target named is T3, FLAG-tagged wild type TFIIEβ (human, UniProt P29084 1-291).
T3 sequence (looked up): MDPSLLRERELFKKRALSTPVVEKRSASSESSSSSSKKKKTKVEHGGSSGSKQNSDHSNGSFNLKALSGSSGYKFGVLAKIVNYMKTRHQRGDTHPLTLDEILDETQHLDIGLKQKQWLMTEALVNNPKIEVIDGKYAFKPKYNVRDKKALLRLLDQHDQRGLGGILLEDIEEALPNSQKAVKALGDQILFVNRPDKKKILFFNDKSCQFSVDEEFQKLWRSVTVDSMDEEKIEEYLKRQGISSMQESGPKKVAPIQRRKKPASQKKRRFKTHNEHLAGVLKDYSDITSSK
Put plainly: co-IP.

Series [4] concerns the target T2, Human TFIIEα, wild type, N-terminal …. Put plainly: co-IP.
Series [5] concerns the target T1, Glutathione S-transferase (GST)-tagged …. The series is described as follows: pull-down.

Where a chain is given by its changes, count along the chain named. Names may count otherwise.

T1 sequence (P19447 whole entry): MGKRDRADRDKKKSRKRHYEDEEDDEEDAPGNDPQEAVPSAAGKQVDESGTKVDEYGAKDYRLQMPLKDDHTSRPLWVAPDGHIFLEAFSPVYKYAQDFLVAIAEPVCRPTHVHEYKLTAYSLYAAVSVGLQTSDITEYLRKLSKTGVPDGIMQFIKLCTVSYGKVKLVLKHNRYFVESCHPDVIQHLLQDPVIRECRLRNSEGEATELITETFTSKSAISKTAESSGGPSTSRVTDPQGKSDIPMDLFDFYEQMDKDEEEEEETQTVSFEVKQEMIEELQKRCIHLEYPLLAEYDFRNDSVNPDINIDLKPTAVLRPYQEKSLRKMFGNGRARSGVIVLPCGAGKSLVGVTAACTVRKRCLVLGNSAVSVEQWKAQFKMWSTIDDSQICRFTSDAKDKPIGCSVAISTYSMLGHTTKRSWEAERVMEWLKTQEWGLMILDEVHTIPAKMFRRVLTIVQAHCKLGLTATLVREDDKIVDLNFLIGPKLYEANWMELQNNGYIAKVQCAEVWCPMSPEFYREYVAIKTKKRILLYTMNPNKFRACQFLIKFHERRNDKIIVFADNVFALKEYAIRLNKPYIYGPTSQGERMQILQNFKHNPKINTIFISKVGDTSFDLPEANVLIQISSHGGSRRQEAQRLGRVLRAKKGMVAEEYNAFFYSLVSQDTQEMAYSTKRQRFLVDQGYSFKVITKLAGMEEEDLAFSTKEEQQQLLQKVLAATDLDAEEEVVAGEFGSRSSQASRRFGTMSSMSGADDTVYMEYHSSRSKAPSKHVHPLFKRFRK

B1: Human TFIIEβ, wild type, His6 tagged (natural protein, UniProt P29084 1-291, looked up)
chain: T3 sequence (looked up)
B1: the “stimulation of XPB helicase activity, 2 μg of XPB and 1.2 μg of wild-type TFIIEβ” value in series [1] was 3 fold. Besides, the binding result (in the series “co-IP”; in series [2]) was “binds” in each case.

B2: Human TFIIEβ I171S, His6 tagged (natural protein, UniProt P29084 1-291, looked up)
chain: T3 sequence (looked up) with I171S
With B2, the binding result in series [3], in series [4] and in series [5] was “binds” throughout.

B3: Human TFIIEβ I189S, His6 tagged (natural protein, UniProt P29084 1-291, looked up)
chain: T3 sequence (looked up) with I189S
For the molecule B3, the binding result in series [3], in series [4] and in series [5] was “binds” in each case.
